Experimental data published in article PMC3207847, “Characterization of a Novel Type of HIV-1 Particle Assembly Inhibitor Using a Quantitative Luciferase-Vpr Packaging-Based Assay” (PLoS ONE, 2011).

Molecular target: HIV-1 Gag precursor Pr55Gag, full-length wild type (HIV-1) (UniProt P03348)
Assay: co-sedimentation

Row | Substance | copies of Gag per LucVpr molecule in VLP (copies of Gag per LucVpr molecule) | copies of Gag per Vpr molecule in VLP (copies of Gag per Vpr molecule)
1 | luciferase-Vpr fusion protein (LucVpr) (from UniProt P05928 1-96) (natural protein) | 4.92 | –
2 | oligohistidine-tagged HIV-1 Vpr protein (from UniProt P05928 1-96) (natural protein) | – | 5.6
